{
  "source": "patent US20020160955A1",
  "about": "(published 2002)",
  "binders": {"B1": {"name": "human IGFBP-1 (other, UniProt P08833 26-259, looked up)", "chain": "APWQCAPCSAEKLALCPPVSASCSEVTRSAGCGCCPMCALPLGAACGVATARCARGLSCRALPGEQQPLHALTRGQGACVQESDASAPHAAEAGSPESPESTEITEEELLDNFHLMAPSEEDHSILWDAISTYDGSKALHVTNIKKWKEPCRIELYRVVESLAKAQETSGEEISKFYLPNCNKNGFYHSRQCETSMDGEAGLCWCVYPWNGKRIPGSPEIRGDPNCQIYFNVQN", "notes": "secreted recombinant protein purified from conditioned medium"}},
  "key": {"[1]": {"biological_target": "T1, IGF-I G22A (G1S-A70V background) displayed on phage (human; bacteriophage M13, not fully specified; Displayed monovalently on M13 phage as a C-terminal fusion to the gene III fragment, which is left out of the letters.)", "T1 construct": "monovalent M13 phage display; not shown: Display carrier: M13 gene III fragment (residues 249-406) and its junction", "T1 chain": "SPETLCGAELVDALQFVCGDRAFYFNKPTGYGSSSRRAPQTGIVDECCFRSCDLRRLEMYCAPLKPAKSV", "experiment": "competitive phage ELISA", "description": "(§1) Phage particles were harvested and resuspended in PBS buffer as described in Lowman, H. B., “Phage Display of Peptide Libraries on Protein Scaffolds,” in Cabilly, S. (ed.), Combinatorial Peptide Library Protocols (Humana Press Inc.: Totowa, N.J., 1998), pp. 249-264. Then phage concentrations were normalized to yield a maximal ELISA signal of 0.2-0.4 for each mutant (Lowman, in Cabilly, S. (ed.), supra). Threefold serial dilutions of soluble competitor were prepared on non-absorbent microtiter plates (Nunc, F, 96 wells) with binding buffer (0.5% TWEEN™ 20/PBS) containing phage at the previously-determined concentrations. […] After blocking, the plates containing immobilized target were washed with 0.05% TWEEN™/PBS buffer and subsequently incubated with 80 μl/well of the premixed phage-competitor solutions for 1 hour at room temperature. After washing, bound phage was detected with 80 μl/well of a solution containing a primary rabbit anti-phage polyclonal antibody and a secondary goat anti-rabbit monoclonal antibody-horseradish peroxidase conjugate in 0.5% TWEEN 20™/PBS. o-Phenylenediamine (Sigma) and tetramethylbenzidine (Kirkegaard and Perry) were used as chromogenic substrates, resulting in product detection at 492 and 450 nm, respectively. IC₅₀ values were determined by fitting the binding data to a generic saturation curve (Lowman, in Cabilly, S. (ed.), supra). […] Numbers in Table I represent mean +standard deviation of individually assessed IC₅₀ values.\n(§2) At least two different clones of every mutant were tested."}, "[2]": {"biological_target": "T2, IGF-I R55A (G1S-A70V background) displayed on phage (human; bacteriophage M13)", "T2 construct": "monovalent M13 phage display", "T2 chain": "T1 chain with A22G, R55A", "experiment": "competitive phage ELISA", "description": "as §1, §2"}, "[3]": {"biological_target": "T3, IGF-I Y31A (G1S-A70V background) displayed on phage (human; bacteriophage M13)", "T3 construct": "monovalent M13 phage display; not shown: M13 gene III fragment (residues 249-406, display partner) and the junction to it", "T3 chain": "T1 chain with A22G, Y31A", "experiment": "competitive phage ELISA", "description": "as §1, §2"}, "[4]": {"biological_target": "T4, IGF-I G1S-A70V displayed on phage (human; bacteriophage M13)", "T4 construct": "monovalent M13 phage display; template of the alanine scan; also called G1S-A70V IGF-I; wild-type-like IGF-I variant; not shown: M13 gene III fragment (residues 249-406, display partner) and the junction to it", "experiment": "competitive phage ELISA (FIG. 1)", "description": "Then phage concentrations were normalized to yield a maximal ELISA signal of 0.2-0.4 for each mutant (Lowman, in Cabilly, S. (ed.), supra). Threefold serial dilutions of soluble competitor were prepared on non-absorbent microtiter plates (Nunc, F, 96 wells) with binding buffer (0.5% TWEEN™ 20/PBS) containing phage at the previously-determined concentrations. […] After blocking, the plates containing immobilized target were washed with 0.05% TWEEN™/PBS buffer and subsequently incubated with 80 μl/well of the premixed phage-competitor solutions for 1 hour at room temperature. After washing, bound phage was detected with 80 μl/well of a solution containing a primary rabbit anti-phage polyclonal antibody and a secondary goat anti-rabbit monoclonal antibody-horseradish peroxidase conjugate in 0.5% TWEEN 20™/PBS. o-Phenylenediamine (Sigma) and tetramethylbenzidine (Kirkegaard and Perry) were used as chromogenic substrates, resulting in product detection at 492 and 450 nm, respectively. IC₅₀ values were determined by fitting the binding data to a generic saturation curve (Lowman, in Cabilly, S. (ed.), supra). […] Numbers in Table I represent mean +standard deviation of individually assessed IC₅₀ values."}, "[5]": {"biological_target": "T5, IGF-I R36A (purified, soluble) (human, UniProt P05019 49-118)", "T5 construct": "made from the wild-type template pBKIGF2B-f1-ori", "T5 sequence (P05019 49-118 R84A)": "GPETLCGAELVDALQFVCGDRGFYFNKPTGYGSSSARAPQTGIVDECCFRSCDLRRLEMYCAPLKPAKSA", "experiment": "BIACORE; KD mut/KD wt", "description": "(§3) Carboxymethylated dextran biosensor chips (CM5, BIAcore Inc.) were activated with EDC (N-ethyl-N′-(3-dimethylaminopropyl)-carbodiimide hydrochloride) and NHS (N-hydroxysuccinimide) according to the supplier's instructions. For immobilization, IGF mutants in 20 mM sodium acetate, pH 4.8, were injected onto the biosensor chip at a concentration of 50 μg/ml to yield approximately 450-600 RU's (resonance-response units) of covalently-coupled protein. Unreacted groups were blocked with an injection of 1 M ethanolamine. […] Association rates (kₐ) and dissociation rates (kd) were calculated separately using a 1:1 Langmuir™ association model in the BIACORE™ evaluation software v. 3.0. The equilibrium dissociation constant (KD) was calculated as kd/kₐ."}, "[6]": {"biological_target": "T6, IGF-I T4A (purified, soluble) (human, UniProt P05019 49-118)", "T6 construct": "made from the wild-type template pBKIGF2B-f1-ori", "T6 sequence (P05019 other isoform, or with tags, fused parts or gaps)": "as the sequence (P05019 49-118 R84A) above, with T4A, A36R counted along it", "experiment": "BIACORE; KD mut/KD wt", "description": "as §3"}, "[7]": {"biological_target": "T7, wild-type human IGF-I (purified, soluble) (human, UniProt P05019 49-118)", "T7 construct": "immobilized on the biosensor chip by amine coupling in BIACORE experiments; also called IGF-I WT", "T7 sequence (P05019 49-118)": "as the sequence (P05019 49-118 R84A) above, with A36R counted along it", "experiment": "BIACORE; KD mut/KD wt", "description": "as §3"}, "[8]": {"biological_target": "T8, IGF-I F16A (purified, soluble) (human, UniProt P05019 49-118)", "T8 construct": "made from the wild-type template pBKIGF2B-f1-ori; also called IGF-F16A; FI6A", "T8 sequence (P05019 49-118 F64A)": "as the sequence (P05019 49-118 R84A) above, with F16A, A36R counted along it", "experiment": "BIACORE; KD mut/KD wt", "description": "as §3"}, "[9]": {"biological_target": "T9, IGF-I P39A (purified, soluble) (human, UniProt P05019 49-118)", "T9 construct": "made from the wild-type template pBKIGF2B-f1-ori", "T9 sequence (P05019 49-118 P87A)": "as the sequence (P05019 49-118 R84A) above, with A36R, P39A counted along it", "experiment": "BIACORE; KD mut/KD wt", "description": "as §3"}, "[10]": {"biological_target": "T10, IGF-I V11A (purified, soluble) (human, UniProt P05019 49-118)", "T10 construct": "made from the wild-type template pBKIGF2B-f1-ori", "T10 sequence (P05019 49-118 V59A)": "as the sequence (P05019 49-118 R84A) above, with V11A, A36R counted along it", "experiment": "BIACORE; KD mut/KD wt", "description": "as §3"}, "[11]": {"biological_target": "T11, F49A IGF-I (purified, soluble) (human, UniProt P05019 49-118)", "T11 construct": "made from the wild-type template pBKIGF2B-f1-ori; also called F49A IGF variant", "T11 sequence (P05019 49-118 F97A)": "as the sequence (P05019 49-118 R84A) above, with A36R, F49A counted along it", "experiment": "BIACORE; KD mut/KD wt", "description": "as §3"}, "[12]": {"biological_target": "T12, IGF-I F25A (purified, soluble) (human, UniProt P05019 49-118)", "T12 construct": "made from the wild-type template pBKIGF2B-f1-ori", "T12 sequence (P05019 49-118 F73A)": "as the sequence (P05019 49-118 R84A) above, with F25A, A36R counted along it", "experiment": "BIACORE; KD mut/KD wt", "description": "as §3"}, "[13]": {"biological_target": "IGF-I G1S-A70V (purified, soluble) (human, UniProt P05019 50-117)", "experiment": "BIACORE; KD mut/KD wt", "description": "as §3"}},
  "note": "Positions count from the first letter of the chain named.",
  "data": [
    {"binder": "B1", "values": [
      {"measurement": "IC50", "setting": "[1]", "value": 15.9, "unit": "nM"},
      {"measurement": "IC50", "setting": "[2]", "value": 9, "unit": "nM"},
      {"measurement": "IC50", "setting": "[3]", "value": 6.8, "unit": "nM"},
      {"measurement": "IC50", "setting": "[4]", "value": 8.5, "unit": "nM"},
      {"measurement": "relative KD", "setting": "[5]", "value": 1.1},
      {"measurement": "relative KD", "setting": "[6]", "value": 6.9},
      {"measurement": "relative KD", "setting": "[7]", "value": 1},
      {"measurement": "relative KD", "setting": "[8]", "value": 25},
      {"measurement": "relative KD", "setting": "[9]", "value": 1},
      {"measurement": "relative KD", "setting": "[10]", "value": 5.1},
      {"measurement": "relative KD", "setting": "[11]", "value": 70},
      {"measurement": "relative KD", "setting": "[12]", "value": 25},
      {"measurement": "relative KD", "setting": "[13]", "value": 1.1}
    ]}
  ]
}
